Test results: PMC2133165 (The Journal of Cell Biology, 1999)

Assays:
SF3a120 = target: T1, SF3a120 (human (endogenous in HeLa), UniProt Q15459 1-793); assay: co-IP
T1 sequence: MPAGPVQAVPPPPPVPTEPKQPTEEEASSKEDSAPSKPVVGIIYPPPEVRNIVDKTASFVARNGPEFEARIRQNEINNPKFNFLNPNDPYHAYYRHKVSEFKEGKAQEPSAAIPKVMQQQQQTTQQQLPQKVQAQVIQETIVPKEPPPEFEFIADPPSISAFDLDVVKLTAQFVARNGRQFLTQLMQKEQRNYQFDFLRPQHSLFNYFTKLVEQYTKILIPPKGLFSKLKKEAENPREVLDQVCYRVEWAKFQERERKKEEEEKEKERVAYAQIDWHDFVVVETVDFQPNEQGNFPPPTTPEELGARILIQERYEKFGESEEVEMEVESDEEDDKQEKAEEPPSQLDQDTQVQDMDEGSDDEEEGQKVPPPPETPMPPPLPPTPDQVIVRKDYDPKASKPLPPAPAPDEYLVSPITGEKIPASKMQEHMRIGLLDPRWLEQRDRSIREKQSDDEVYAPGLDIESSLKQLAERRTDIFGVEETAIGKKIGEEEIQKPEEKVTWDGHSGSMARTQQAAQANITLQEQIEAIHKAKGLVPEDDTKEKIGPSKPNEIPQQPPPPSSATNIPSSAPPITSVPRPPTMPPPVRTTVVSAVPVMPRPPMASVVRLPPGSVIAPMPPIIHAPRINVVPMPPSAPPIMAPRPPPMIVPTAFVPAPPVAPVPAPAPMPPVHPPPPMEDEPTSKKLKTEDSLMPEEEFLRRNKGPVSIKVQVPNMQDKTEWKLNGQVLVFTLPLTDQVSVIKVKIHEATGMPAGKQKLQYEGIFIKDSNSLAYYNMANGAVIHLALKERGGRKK

SF3a60 = target: T2, SF3a60 (human (endogenous in HeLa), UniProt Q12874 1-501); assay: co-IP
T2 sequence: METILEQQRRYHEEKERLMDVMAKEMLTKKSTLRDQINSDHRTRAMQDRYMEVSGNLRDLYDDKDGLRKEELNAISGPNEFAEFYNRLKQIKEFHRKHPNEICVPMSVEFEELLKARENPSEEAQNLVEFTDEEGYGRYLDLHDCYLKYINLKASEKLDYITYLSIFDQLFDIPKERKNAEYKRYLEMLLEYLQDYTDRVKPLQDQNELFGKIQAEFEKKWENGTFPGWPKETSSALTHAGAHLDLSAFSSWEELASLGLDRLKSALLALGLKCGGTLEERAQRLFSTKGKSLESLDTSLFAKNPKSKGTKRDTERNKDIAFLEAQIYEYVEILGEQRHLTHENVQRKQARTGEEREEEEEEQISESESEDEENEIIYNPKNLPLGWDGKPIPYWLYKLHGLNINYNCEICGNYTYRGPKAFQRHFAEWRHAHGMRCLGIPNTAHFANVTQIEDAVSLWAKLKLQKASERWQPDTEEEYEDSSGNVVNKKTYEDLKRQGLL

B1: SF3a66 (natural protein)
chain: MDFQHRPGGKTGSGGVASSSESNRDRRERLRQLALETIDINKDPYFMKNHLGSYECKLCLTLHNNEGSYLAHTQGKKHQTNLARRAAKEAKEAPAQPAPEKVKVEVKKFVKIGRPGYKVTKQRDSEMGQQSLLFQIDYPEIAEGIMPRHRFMSAYEQRIEPPDRRWQYLLMAAEPYETIAFKVPSREIDKAEGKFWTHWNRETKQFFLQFHFKMEKPPAPPSLPAGPPGVKRPPPPLMNGLPPRPPLPESLPPPPPGGLPLPPMPPTGPAPSGPPGPPQLPPPAPGVHPPAPVVHPPASGVHPPAPGVHPPAPGVHPPAPGVHPPTSGVHPPAPGVHPPAPGVHPPAPGVHPPAPGVHPPAPGVHPPPSAGVHPQAPGVHPAAPAVHPQAPGVHPPAPGMHPQAPGVHPQPPGVHPSAPGVHPQPPGVHPSNPGVHPPTPMPPMLRPPLPSEGPGNIPPPPPTN
binding result (SF3a120): binds | binding result (SF3a60): binds
